Data on 125 sequences can be found in the supplement of paper PMC9112550, “Optimization of the antimicrobial peptide Bac7 by deep mutational scanning” (BMC Biology, 2022).

The data set concerns Escherichia coli TOP10. Description: shrunken log2 fold change of peptide-encoding DNA abundance (4.5 h post-induction vs induction); higher = less antimicrobial activity (less host growth inhibition). Particulars: time post-induction: 4.5 h; library: site-saturation at positions 5, 18, 19, 20.
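Also: peptides expressed intracellularly from a pBAD plasmid library in pooled LB shake-flask culture, induced with 0.3% L-arabinose, DNA abundance read by NGS, three biological replicates, DESeq2 with apeglm shrinkage.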

Take RRIRKRPPRLPRPRPRPHLLPRP: the “shrunken log2 fold change” value worked out at 0.00821.

Consider RRIRMRPPRLPRPRPRPVTVPRP, for which the “shrunken log2 fold change” value is 0.0436.

Regarding RRIRYRPPRLPRPRPRPVPGPRP, the “shrunken log2 fold change” value was -0.151.

Take RRIRSRPPRLPRPRPRPLIWPRP: the “shrunken log2 fold change” value stood at 0.312.

Turning to RRIRTRPPRLPRPRPRPGIQPRP, the “shrunken log2 fold change” value was 0.131.

Turning to RRIRLRPPRLPRPRPRPYIDPRP, the “shrunken log2 fold change” value was -0.00113.

Consider RRIRNRPPRLPRPRPRPRCMPRP, for which the “shrunken log2 fold change” value is -0.5.

In the case of RRIRHRPPRLPRPRPRPKEDPRP, the “shrunken log2 fold change” value amounted to 2.87.

RRIRKRPPRLPRPRPRPYGVPRP: the “shrunken log2 fold change” value is 0.0715.

RRIRDRPPRLPRPRPRPIQHPRP: the “shrunken log2 fold change” value is -0.444.

On to RRIRRRPPRLPRPRPRPNYYPRP, for which the “shrunken log2 fold change” value was -0.333.

For RRIRFRPPRLPRPRPRPMFQPRP, the “shrunken log2 fold change” value was -0.336.

For the sequence RRIRGRPPRLPRPRPRPTVVPRP, the “shrunken log2 fold change” value is 0.41.

For the sequence RRIRARPPRLPRPRPRPNWEPRP, the “shrunken log2 fold change” value is -0.0132.

As for RRIRKRPPRLPRPRPRPSEPPRP, the “shrunken log2 fold change” value was 0.249.

For the sequence RRIRNRPPRLPRPRPRPGDSPRP, the “shrunken log2 fold change” value was -0.0564.

On to RRIRLRPPRLPRPRPRPTALPRP, for which the “shrunken log2 fold change” value was -0.134.

With RRIRVRPPRLPRPRPRPFISPRP, the “shrunken log2 fold change” value was -0.11.

Consider RRIRPRPPRLPRPRPRPHNNPRP, for which the “shrunken log2 fold change” value is -0.692.

On to RRIRSRPPRLPRPRPRPARPPRP, for which the “shrunken log2 fold change” value came to 0.691.

For the sequence RRIRIRPPRLPRPRPRPINHPRP, the “shrunken log2 fold change” value was -0.683.

For the sequence RRIRKRPPRLPRPRPRPMEFPRP, the “shrunken log2 fold change” value is -0.00102.

In the case of RRIRSRPPRLPRPRPRPKPWPRP, the “shrunken log2 fold change” value was 0.463.

On to RRIRCRPPRLPRPRPRPEMQPRP, for which the “shrunken log2 fold change” value worked out at 0.526.

As to RRIRSRPPRLPRPRPRPAKDPRP, the “shrunken log2 fold change” value stood at 0.135.

As to RRIRDRPPRLPRPRPRPANGPRP, the “shrunken log2 fold change” value was -0.0137.

Regarding RRIRQRPPRLPRPRPRPACFPRP, the “shrunken log2 fold change” value worked out at 0.315.

Take RRIRSRPPRLPRPRPRPVAHPRP: the “shrunken log2 fold change” value is -0.0951.

Consider RRIRMRPPRLPRPRPRPNLLPRP, for which the “shrunken log2 fold change” value is -0.103.

For RRIRARPPRLPRPRPRPPEVPRP, the “shrunken log2 fold change” value amounted to 1.17.

RRIRSRPPRLPRPRPRPWVIPRP: the “shrunken log2 fold change” value is -0.201.

For the sequence RRIRPRPPRLPRPRPRPTQPPRP, the “shrunken log2 fold change” value came out at 0.402.

In the case of RRIRRRPPRLPRPRPRPQVAPRP, the “shrunken log2 fold change” value came to 0.157.

In the case of RRIRERPPRLPRPRPRPLKQPRP, the “shrunken log2 fold change” value was -0.121.

As for RRIRGRPPRLPRPRPRPWCRPRP, the “shrunken log2 fold change” value turned out to be 0.195.

With RRIRFRPPRLPRPRPRPYSIPRP, the “shrunken log2 fold change” value is -0.186.

For the sequence RRIRLRPPRLPRPRPRPTMCPRP, the “shrunken log2 fold change” value is -0.0109.

As for RRIRWRPPRLPRPRPRPTTCPRP, the “shrunken log2 fold change” value is -0.00726.

Take RRIRMRPPRLPRPRPRPKEIPRP: the “shrunken log2 fold change” value is 0.38.

Consider RRIRWRPPRLPRPRPRPFWCPRP, for which the “shrunken log2 fold change” value was 0.193.

For RRIRNRPPRLPRPRPRPPHVPRP, the “shrunken log2 fold change” value was determined as 0.147.

RRIRFRPPRLPRPRPRPCYPPRP: the “shrunken log2 fold change” value was -0.451.

On to RRIRRRPPRLPRPRPRPNHAPRP, for which the “shrunken log2 fold change” value came out at 0.345.

Consider RRIRCRPPRLPRPRPRPMLYPRP, for which the “shrunken log2 fold change” value was -0.189.

As to RRIRDRPPRLPRPRPRPIWIPRP, the “shrunken log2 fold change” value is 0.0877.

Consider RRIRNRPPRLPRPRPRPYQFPRP, for which the “shrunken log2 fold change” value was -0.225.

In the case of RRIRLRPPRLPRPRPRPIYSPRP, the “shrunken log2 fold change” value worked out at 0.0408.

With RRIRARPPRLPRPRPRPPYYPRP, the “shrunken log2 fold change” value was found to be 0.0635.

As to RRIRWRPPRLPRPRPRPYKRPRP, the “shrunken log2 fold change” value is -0.977.

RRIRPRPPRLPRPRPRPYAHPRP: the “shrunken log2 fold change” value is -0.0338.

On to RRIRHRPPRLPRPRPRPKLQPRP, for which the “shrunken log2 fold change” value came out at 0.0439.

With RRIRHRPPRLPRPRPRPSSSPRP, the “shrunken log2 fold change” value was -0.258.

In the case of RRIRPRPPRLPRPRPRPWPVPRP, the “shrunken log2 fold change” value is 0.317.

On to RRIRQRPPRLPRPRPRPRYHPRP, for which the “shrunken log2 fold change” value is -0.784.

As for RRIRQRPPRLPRPRPRPIENPRP, the “shrunken log2 fold change” value came out at 0.219.

For RRIRMRPPRLPRPRPRPDAMPRP, the “shrunken log2 fold change” value worked out at 2.44.

With RRIRFRPPRLPRPRPRPWQMPRP, the “shrunken log2 fold change” value is 0.053.

Consider RRIRARPPRLPRPRPRPYNPPRP, for which the “shrunken log2 fold change” value was -0.388.

In the case of RRIRLRPPRLPRPRPRPWEQPRP, the “shrunken log2 fold change” value is -0.206.

RRIRHRPPRLPRPRPRPEMPPRP: the “shrunken log2 fold change” value was -0.177.

On to RRIRRRPPRLPRPRPRPHAIPRP, for which the “shrunken log2 fold change” value was -0.042.

On to RRIRDRPPRLPRPRPRPNCSPRP, for which the “shrunken log2 fold change” value was 0.271.

As to RRIRHRPPRLPRPRPRPEWVPRP, the “shrunken log2 fold change” value was -0.086.

For the sequence RRIRTRPPRLPRPRPRPTWPPRP, the “shrunken log2 fold change” value came to 0.439.

As to RRIRSRPPRLPRPRPRPIMVPRP, the “shrunken log2 fold change” value was -0.644.

Turning to RRIRWRPPRLPRPRPRPGPTPRP, the “shrunken log2 fold change” value was determined as 0.487.

Regarding RRIRQRPPRLPRPRPRPIVYPRP, the “shrunken log2 fold change” value was -0.311.

With RRIRLRPPRLPRPRPRPRFAPRP, the “shrunken log2 fold change” value came out at 0.374.

On to RRIRRRPPRLPRPRPRPPFAPRP, for which the “shrunken log2 fold change” value was 0.739.

Take RRIRCRPPRLPRPRPRPELLPRP: the “shrunken log2 fold change” value is -0.0954.

As to RRIRMRPPRLPRPRPRPFSLPRP, the “shrunken log2 fold change” value is -0.282.

As for RRIRFRPPRLPRPRPRPHTRPRP, the “shrunken log2 fold change” value is -0.223.

As to RRIRRRPPRLPRPRPRPQQNPRP, the “shrunken log2 fold change” value is 0.0713.

For the sequence RRIRQRPPRLPRPRPRPPQDPRP, the “shrunken log2 fold change” value amounted to 1.1.

As for RRIRPRPPRLPRPRPRPMMEPRP, the “shrunken log2 fold change” value amounted to 0.0824.

Take RRIRLRPPRLPRPRPRPADEPRP: the “shrunken log2 fold change” value came to 0.167.

Take RRIRTRPPRLPRPRPRPCNPPRP: the “shrunken log2 fold change” value was -0.0887.

With RRIRWRPPRLPRPRPRPDGHPRP, the “shrunken log2 fold change” value was 0.0237.

As for RRIRPRPPRLPRPRPRPHMNPRP, the “shrunken log2 fold change” value is -0.6.

On to RRIRCRPPRLPRPRPRPKTHPRP, for which the “shrunken log2 fold change” value was -0.115.

For the sequence RRIRMRPPRLPRPRPRPFFEPRP, the “shrunken log2 fold change” value was 0.597.

As for RRIRDRPPRLPRPRPRPGERPRP, the “shrunken log2 fold change” value is 0.276.

As for RRIRHRPPRLPRPRPRPAAIPRP, the “shrunken log2 fold change” value was determined as 0.0732.

With RRIRPRPPRLPRPRPRPPWVPRP, the “shrunken log2 fold change” value was 0.356.

For the sequence RRIRGRPPRLPRPRPRPCTLPRP, the “shrunken log2 fold change” value turned out to be 0.321.

Take RRIRSRPPRLPRPRPRPATNPRP: the “shrunken log2 fold change” value came to 0.0897.

Take RRIRWRPPRLPRPRPRPECLPRP: the “shrunken log2 fold change” value is 0.444.

In the case of RRIRPRPPRLPRPRPRPHGQPRP, the “shrunken log2 fold change” value is 0.186.

For the sequence RRIRDRPPRLPRPRPRPNGHPRP, the “shrunken log2 fold change” value was -0.252.

With RRIRNRPPRLPRPRPRPWNRPRP, the “shrunken log2 fold change” value turned out to be 0.0601.

As for RRIRVRPPRLPRPRPRPYAWPRP, the “shrunken log2 fold change” value came to 0.0346.

RRIRHRPPRLPRPRPRPCKCPRP: the “shrunken log2 fold change” value was -0.174.

With RRIRCRPPRLPRPRPRPDPAPRP, the “shrunken log2 fold change” value came to 0.412.

As to RRIRNRPPRLPRPRPRPNLLPRP, the “shrunken log2 fold change” value is -0.112.

In the case of RRIRQRPPRLPRPRPRPWFRPRP, the “shrunken log2 fold change” value is -0.145.

For the sequence RRIRIRPPRLPRPRPRPHLCPRP, the “shrunken log2 fold change” value was determined as 0.0475.

In the case of RRIRDRPPRLPRPRPRPDFQPRP, the “shrunken log2 fold change” value was found to be 0.189.

In the case of RRIRQRPPRLPRPRPRPGYYPRP, the “shrunken log2 fold change” value is -0.476.

Turning to RRIRYRPPRLPRPRPRPWCNPRP, the “shrunken log2 fold change” value was -0.123.

Take RRIRHRPPRLPRPRPRPQPEPRP: the “shrunken log2 fold change” value was -0.0374.

As to RRIRCRPPRLPRPRPRPIAKPRP, the “shrunken log2 fold change” value was 0.0637.

With RRIRRRPPRLPRPRPRPRKTPRP, the “shrunken log2 fold change” value was 0.615.

Consider RRIRQRPPRLPRPRPRPKFNPRP, for which the “shrunken log2 fold change” value is -0.271.

As for RRIRVRPPRLPRPRPRPKLDPRP, the “shrunken log2 fold change” value worked out at 0.116.

RRIRHRPPRLPRPRPRPVRAPRP: the “shrunken log2 fold change” value was found to be 0.571.

In the case of RRIRSRPPRLPRPRPRPVCLPRP, the “shrunken log2 fold change” value turned out to be 0.0459.

For RRIRERPPRLPRPRPRPRTLPRP, the “shrunken log2 fold change” value was -0.17.

RRIRIRPPRLPRPRPRPDLGPRP: the “shrunken log2 fold change” value is -0.0274.

Take RRIRFRPPRLPRPRPRPPHHPRP: the “shrunken log2 fold change” value was -0.0595.

Take RRIRIRPPRLPRPRPRPTEVPRP: the “shrunken log2 fold change” value turned out to be 0.232.

For the sequence RRIRDRPPRLPRPRPRPLNEPRP, the “shrunken log2 fold change” value is -0.188.

As for RRIRERPPRLPRPRPRPITPPRP, the “shrunken log2 fold change” value is -0.628.

On to RRIRHRPPRLPRPRPRPYPMPRP, for which the “shrunken log2 fold change” value is -0.2.

For the sequence RRIRIRPPRLPRPRPRPAAPPRP, the “shrunken log2 fold change” value came to 0.47.

Regarding RRIRERPPRLPRPRPRPLPVPRP, the “shrunken log2 fold change” value was -0.0551.

Take RRIRGRPPRLPRPRPRPDMDPRP: the “shrunken log2 fold change” value was determined as 0.00342.

As to RRIRGRPPRLPRPRPRPSNMPRP, the “shrunken log2 fold change” value was -0.113.

Turning to RRIRERPPRLPRPRPRPTCSPRP, the “shrunken log2 fold change” value is -0.397.

RRIRMRPPRLPRPRPRPEKEPRP: the “shrunken log2 fold change” value is -0.0085.

With RRIRMRPPRLPRPRPRPDKQPRP, the “shrunken log2 fold change” value was 0.0746.

On to RRIRQRPPRLPRPRPRPWLLPRP, for which the “shrunken log2 fold change” value is -0.151.

Take RRIRPRPPRLPRPRPRPNINPRP: the “shrunken log2 fold change” value was -0.795.

RRIRGRPPRLPRPRPRPQRIPRP: the “shrunken log2 fold change” value was found to be 0.178.

RRIRARPPRLPRPRPRPYDDPRP: the “shrunken log2 fold change” value is 0.192.

Consider RRIRSRPPRLPRPRPRPRECPRP, for which the “shrunken log2 fold change” value came out at 0.71.
